Substitutions are numbered along the chain they refer to.

Here are results for five molecules from patent US20240400675A1 (published 2024).

One test deals with T1, human CLDN5 (human, UniProt O00501 1-218).
T1 construct: whole, on cells
T1 sequence (looked up): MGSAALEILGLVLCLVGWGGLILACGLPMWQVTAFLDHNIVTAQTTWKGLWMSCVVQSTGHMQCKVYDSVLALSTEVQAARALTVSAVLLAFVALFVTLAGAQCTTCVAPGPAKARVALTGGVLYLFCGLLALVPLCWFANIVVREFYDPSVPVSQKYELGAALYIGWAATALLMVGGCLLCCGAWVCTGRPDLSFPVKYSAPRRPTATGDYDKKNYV
Nature of the test: flow cytometry on transfected cells. Background: In flow cytometry, cells or beads pass a laser one at a time.

The next test has as its target T2, human CLDN8 (human, UniProt P56748 1-225).
T2 construct: whole, on cells
T2 sequence (looked up): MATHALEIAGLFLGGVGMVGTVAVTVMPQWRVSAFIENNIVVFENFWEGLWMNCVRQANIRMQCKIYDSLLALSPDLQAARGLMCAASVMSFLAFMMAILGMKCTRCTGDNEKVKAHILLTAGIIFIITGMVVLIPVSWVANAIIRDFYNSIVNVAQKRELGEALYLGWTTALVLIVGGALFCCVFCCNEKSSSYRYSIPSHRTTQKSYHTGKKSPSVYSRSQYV
The test can be described thus: flow cytometry on transfected cells.

A further test deals with T3, human CLDN17 (human, UniProt P56750 1-224).
T3 construct: whole, on cells
T3 sequence (looked up): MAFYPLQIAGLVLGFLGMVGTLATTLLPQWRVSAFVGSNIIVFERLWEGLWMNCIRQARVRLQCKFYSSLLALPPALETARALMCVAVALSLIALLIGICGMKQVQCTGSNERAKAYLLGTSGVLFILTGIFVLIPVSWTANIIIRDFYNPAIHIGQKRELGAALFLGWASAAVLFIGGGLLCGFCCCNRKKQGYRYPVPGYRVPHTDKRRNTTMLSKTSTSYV
The test can be described thus: flow cytometry on transfected cells.

For test [1], the target named is T4, human CLDN6 (human, UniProt P56747 1-220).
T4 construct: also called Claudin 6
T4 sequence: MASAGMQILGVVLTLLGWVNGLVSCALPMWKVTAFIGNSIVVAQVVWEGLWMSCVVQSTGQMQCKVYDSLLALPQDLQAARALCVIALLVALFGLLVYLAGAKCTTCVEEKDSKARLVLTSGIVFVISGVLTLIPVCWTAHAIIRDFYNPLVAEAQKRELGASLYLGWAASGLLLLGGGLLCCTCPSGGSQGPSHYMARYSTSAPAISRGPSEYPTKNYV
The test can be described thus: flow cytometry on transfected HEK293E cells. How it is done:
(§1) The following experiments used to screen CLDN6 binding domains were generally performed as follows. HEK293T or HEK293E cells were respectively stably or transiently transfected to express CLDN6, CLND9, or other targets of interest. 48 hours post transfection, cells were harvested and incubated with dilutions of the indicated test articles for 1 hour at 4° C. […] Binding was then assessed via flow cytometry.

The target of a further test is T5, CLDN6 I143V isotype (human, UniProt P56747 1-220).
T5 chain: T4 sequence with I143V
The test can be described thus: flow cytometry on transfected HEK293E cells. How it is done:
as §1

The target of the next test is T6, mouse CLDN6 (mouse, UniProt Q9Z262 1-219).
T6 construct: whole, on cells; also called murine CLDN6
T6 sequence (looked up): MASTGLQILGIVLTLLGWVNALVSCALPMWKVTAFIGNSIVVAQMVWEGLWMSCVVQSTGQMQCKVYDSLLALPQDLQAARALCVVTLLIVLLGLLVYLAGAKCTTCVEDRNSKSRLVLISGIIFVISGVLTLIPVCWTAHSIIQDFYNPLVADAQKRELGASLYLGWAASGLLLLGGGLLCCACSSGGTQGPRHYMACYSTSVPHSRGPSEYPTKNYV
Nature of the test: flow cytometry on transfected HEK293E cells. How it is done:
as §1

Test [2] addresses T4, human CLDN6. Nature of the test: flow cytometry on HEK293E cells expressing CLDN6. How it is done: as §1

B1: XENP34638 (C6-30_H2L1 x CD3 bsAb in the 2+1 Fab2-scFv-Fc format) (bispecific antibody)
heavy 1: EVQLVQSGAEVKKPGESLRISCKTSGYTFTEYTMHWVRQMPGKSLEWMGGIDPNNGNTHYNQKFQGHVTISVDKSISTAYLQWSSLKASDTAMYYCARIYYFGRLYFDFWGAGTLVTVSSASTKGPSVFPLAPSSKSTSGGTAALGCLVKDYFPEPVTVSWNSGALTSGVHTFPAVLQSSGLYSLSSVVTVPSSSLGTQTYICNVNHKPSDTKVDKKVEPKSCDKTHTCPPCPAPPVAGPSVFLFPPKPKDTLMISRTPEVTCVVVDVKHEDPEVKFNWYVDGVEVHNAKTKPREEEYNSTYRVVSVLTVLHQDWLNGKEYKCKVSNKALPAPIEKTISKAKGQPREPQVYTLPPSREEMTKNQVSLTCDVSGFYPSDIAVEWESDGQPENNYKTTPPVLDSDGSFFLYSKLTVDKSRWEQGDVFSCSVMHEALHNHYTQKSLSLSPGK
heavy 2: EVQLVQSGAEVKKPGESLRISCKTSGYTFTEYTMHWVRQMPGKSLEWMGGIDPNNGNTHYNQKFQGHVTISVDKSISTAYLQWSSLKASDTAMYYCARIYYFGRLYFDFWGAGTLVTVSSASTKGPSVFPLAPSSKSTSGGTAALGCLVKDYFPEPVTVSWNSGALTSGVHTFPAVLQSSGLYSLSSVVTVPSSSLGTQTYICNVNHKPSNTKVDKKVEPKSCGGGGSGGGGSQAVVTQEPSLTVSPGGTVTLTCGSSTGAVTTSNYANWVQQKPGKSPRGLIGGTNKRAPGVPARFSGSLLGGKAALTISGAQPEDEADYYCALWYSNHWVFGGGTKLTVLGKPGSGKPGSGKPGSGKPGSEVQLVESGGGLVQPGGSLRLSCAASGFTFSTYAMNWVRQAPGKGLEWVGRIRSKYNNYATYYADSVKGRFTISRDDSKNTLYLQMNSLRAEDTAVYYCVRHGNFGDSYVSWFAYWGQGTLVTVSSGGGGSGGGGSKTHTCPPCPAPPVAGPSVFLFPPKPKDTLMISRTPEVTCVVVDVKHEDPEVKFNWYVDGVEVHNAKTKPREEQYNSTYRVVSVLTVLHQDWLNGKEYKCKVSNKALPAPIEKTISKAKGQPREPQVYTLPPSREQMTKNQVKLTCLVKGFYPSDIAVEWESNGQPENNYKTTPPVLDSDGSFFLYSKLTVDKSRWQQGNVFSCSVMHEALHNHYTQKSLSLSPGK
light: not shown
notes: copies: 1 + 1 + 2
Turning to B1, the binding result is given as “no binding” with human CLDN5; “no binding” in the test with human CLDN8; “no binding” with human CLDN17; “binds” with human CLDN6 [1]; “binds” with CLDN6 I143V isotype; “binds” with mouse CLDN6.

B2: XENP34637 (C6-30_H2L1 x CD3 bsAb in the 1+1 Fab-scFv-Fc format) (bispecific antibody)
heavy: B1 heavy 1
scFv-Fc: not shown
light: not shown
notes: copies: 1 + 1 + 1
B2: the binding result with human CLDN5 was “no binding”; in the test with human CLDN8, “no binding”; in the test with human CLDN17, “no binding”; in the test with human CLDN6 [1] it was “binds”; with CLDN6 I143V isotype, “binds”; with mouse CLDN6 it was “binds”.

B3: XENP37227 (C6-30_H1.9_L1.187), 2+1 Fab2-scFv-Fc bsAb with CD3 High-Int #1 (bispecific antibody)
heavy 1: QVQLVQSGAEVKKPGASVKVSCKTSGYTFTEYTMHWVRQAPGQSLEWMGGIDPNNANTHYNQKFQGRVTITVDKSASTAYMELSSLRSEDTAVYYCARIYYFGRLYFDFWGAGTLVTVSSASTKGPSVFPLAPSSKSTSGGTAALGCLVKDYFPEPVTVSWNSGALTSGVHTFPAVLQSSGLYSLSSVVTVPSSSLGTQTYICNVNHKPSDTKVDKKVEPKSCDKTHTCPPCPAPPVAGPSVFLFPPKPKDTLMISRTPEVTCVVVDVKHEDPEVKFNWYVDGVEVHNAKTKPREEEYNSTYRVVSVLTVLHQDWLNGKEYKCKVSNKALPAPIEKTISKAKGQPREPQVYTLPPSREEMTKNQVSLTCDVSGFYPSDIAVEWESDGQPENNYKTTPPVLDSDGSFFLYSKLTVDKSRWEQGDVFSCSVMHEALHNHYTQKSLSLSPGK
heavy 2: QVQLVQSGAEVKKPGASVKVSCKTSGYTFTEYTMHWVRQAPGQSLEWMGGIDPNNANTHYNQKFQGRVTITVDKSASTAYMELSSLRSEDTAVYYCARIYYFGRLYFDFWGAGTLVTVSSASTKGPSVFPLAPSSKSTSGGTAALGCLVKDYFPEPVTVSWNSGALTSGVHTFPAVLQSSGLYSLSSVVTVPSSSLGTQTYICNVNHKPSNTKVDKKVEPKSCGGGGSGGGGSQAVVTQEPSLTVSPGGTVTLTCGSSTGAVTTSNYANWVQQKPGKSPRGLIGGTNKRAPGVPARFSGSLLGGKAALTISGAQPEDEADYYCALWYSNHWVFGGGTKLTVLGKPGSGKPGSGKPGSGKPGSEVQLVESGGGLVQPGGSLRLSCAASGFTFSTYAMNWVRQAPGKGLEWVGRIRSKANNYATYYADSVKGRFTISRDDSKNTLYLQMNSLRAEDTAVYYCVRHGNFGDSYVSWFAYWGQGTLVTVSSGGGGSGGGGSKTHTCPPCPAPPVAGPSVFLFPPKPKDTLMISRTPEVTCVVVDVKHEDPEVKFNWYVDGVEVHNAKTKPREEQYNSTYRVVSVLTVLHQDWLNGKEYKCKVSNKALPAPIEKTISKAKGQPREPQVYTLPPSREQMTKNQVKLTCLVKGFYPSDIAVEWESNGQPENNYKTTPPVLDSDGSFFLYSKLTVDKSRWQQGNVFSCSVMHEALHNHYTQKSLSLSPGK
light: not shown
notes: copies: 1 + 1 + 2
For the molecule B3, the binding result with human CLDN6 [2] is given as “binds”.

B4: XENP34229 (C6-30_H1L1 x CD3 bsAb in the 1+1 Fab-scFv-Fc format) (bispecific antibody)
heavy: B3 heavy 1 with A56G
scFv-Fc: QAVVTQEPSLTVSPGGTVTLTCGSSTGAVTTSNYANWVQQKPGKSPRGLIGGTNKRAPGVPARFSGSLLGGKAALTISGAQPEDEADYYCALWYSNHWVFGGGTKLTVLGKPGSGKPGSGKPGSGKPGSEVQLVESGGGLVQPGGSLRLSCAASGFTFSTYAMNWVRQAPGKGLEWVGRIRSKYNNYATYYADSVKGRFTISRDDSKNTLYLQMNSLRAEDTAVYYCVRHGNFGDSYVSWFAYWGQGTLVTVSSEPKSSDKTHTCPPCPAPPVAGPSVFLFPPKPKDTLMISRTPEVTCVVVDVKHEDPEVKFNWYVDGVEVHNAKTKPREEQYNSTYRVVSVLTVLHQDWLNGKEYKCKVSNKALPAPIEKTISKAKGQPREPQVYTLPPSREQMTKNQVKLTCLVKGFYPSDIAVEWESNGQPENNYKTTPPVLDSDGSFFLYSKLTVDKSRWQQGNVFSCSVMHEALHNHYTQKSLSLSPGK
light: not shown
notes: copies: 1 + 1 + 1
Consider B4, for which the binding result in the test with human CLDN5 is “no binding”; in the test with human CLDN8 it was “no binding”; in the test with human CLDN17, “no binding”; with human CLDN6 [1], “binds”; with CLDN6 I143V isotype it was “binds”; with mouse CLDN6, “binds”.

B5: XENP37231 (C6-30_H1.24_L1.187), 2+1 Fab2-scFv-Fc bsAb with CD3 High-Int #1 (bispecific antibody)
heavy 1: B3 heavy 1 with A56G, F102L
heavy 2: B3 heavy 2 with A56G, F102L
light: not shown
notes: copies: 1 + 1 + 2
B5: the binding result with human CLDN6 [2] is recorded as “binds”.
